Results taken from patent US20190284258.

System: T1, Haemadipsa sylvestris antithrombotic peptide Sylvestin
T1 sequence: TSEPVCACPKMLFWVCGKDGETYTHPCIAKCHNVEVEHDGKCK

For kallikrein, the “enzyme kinetics, chromogenic substrate, OD 405 nm” value was “it can inhibit FXIIa and kallikrein”.
For thrombin, the “enzyme kinetics, chromogenic substrate, OD 405 nm; sample 10 µM” value (“enzyme kinetics … sample 10 µM” below) was “had no inhibitory effect on thrombin, plasminogen FXa or the like”.
With FXa the “enzyme kinetics … sample 10 µM” value was “had no inhibitory effect on thrombin, plasminogen FXa or the like”.
With FXIIa the “enzyme kinetics, chromogenic substrate, OD 405 nm” value was “it can inhibit FXIIa and kallikrein”.
With plasminogen the “enzyme kinetics … sample 10 µM” value was “had no inhibitory effect on thrombin, plasminogen FXa or the like”.
